Data taken from US20190367620A1 (Merck KGaA, published 2019).
Residue numbers refer to the chain shown, from its start. Each block holds one binder with its values, some of them ahead of it.

Legend:
[1] = biological target: T1, human FGFR1b-IIIc extracellular domain with a HIS tag (human, UniProt P11362 22-376); assay: ELISA, EC50 from OD450 curves, monovalent SEEDbody format
T1 construct: also called huFGFR1b-IIIc; hFGFR1b-IIIc
T1 sequence: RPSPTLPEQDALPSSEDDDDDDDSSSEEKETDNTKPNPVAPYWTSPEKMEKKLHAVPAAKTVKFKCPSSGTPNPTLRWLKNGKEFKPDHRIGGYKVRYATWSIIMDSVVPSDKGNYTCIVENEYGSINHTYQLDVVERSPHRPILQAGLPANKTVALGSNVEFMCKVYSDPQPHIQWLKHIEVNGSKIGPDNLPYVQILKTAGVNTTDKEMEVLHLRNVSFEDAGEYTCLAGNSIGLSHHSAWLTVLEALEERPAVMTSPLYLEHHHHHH
Protocol: (§1) The binding selectivity of the antibodies were tested by ELISA against the different FGFR family members: FGFR1, FGFR2, FGFR3 and FGFR4. Briefly plates were coated overnight with the different His6-tagged FGFR proteins, after blocking with 1% Bovine Serum albumin, 1 or 0.1 μg/ml of anti-FGFR1 antibodies were incubated for 1 h at room temperature. After washing, the bound antibodies were incubated for 1 h at room temperature with a peroxidase affiniPure F(ab′)2 Fragment goat anti-human Fc (Jackson ImmunoResearch Laboratories #109-036-098) and detection was performed using the TMB HRP Substrate solution (BioFx Lab # TMBW-1000-01).
(§2) The antibody #A08 both as an IgG1 (bivalent) and as a SEEDbody (monovalent), was affinity matured using the yeast display technology described in (Rhiel et al. 2014) and performing light chain shuffling from immunized OmniRats and naïve human library followed by CDR-H3 parsimonious mutagenesis. Following several sorting rounds, yeast clones were picked, unique clones were reformatted as described in Examples 1.6 and 3.1. The binding affinities of the anti-FGFR1 molecules against human FGFR1b-IIIb) and human FGFR1b-IIIc) were measured by ELISA using a similar protocol as described in Example 1.9. The OD450 was plotted against the antibody concentration and GraphPad Prism software was used to calculate EC₅₀ values (see FIG. 10). […] The best results were obtained with mAb #A02 and #C01 showing an EC50 improvement in both IgG1 and SEEDbody formats.

[2] = biological target: T2, human FGFR1b-IIIb extracellular domain with a HIS tag (human); assay: SPR (BIAcore), SEEDbody format; target IIIb by paragraph 74 and paragraph 125, the table's title says IIIc
T2 construct: also called huFGFR1b-IIIb; hFGFR1b-IIIb
T2 chain: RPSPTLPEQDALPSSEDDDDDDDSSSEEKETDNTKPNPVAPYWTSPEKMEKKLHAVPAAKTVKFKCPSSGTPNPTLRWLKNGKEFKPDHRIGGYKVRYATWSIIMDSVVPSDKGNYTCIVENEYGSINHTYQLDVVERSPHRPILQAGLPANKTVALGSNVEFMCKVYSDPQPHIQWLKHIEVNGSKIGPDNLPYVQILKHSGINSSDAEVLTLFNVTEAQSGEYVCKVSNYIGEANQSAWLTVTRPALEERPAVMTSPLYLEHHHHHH
Protocol: (§3) Binding affinities of anti-FGFR1 antibodies to FGFR1 were measured by Surface Plasmon Resonance (SPR) using a GE Healthcare BIAcore 4000 instrument as follows. Goat anti-human Fc antibody (Jackson ImmunoResearch Laboratories #109-005-098) was first immobilized on BIAcore carboxymethylated dextran CM5 chip using direct coupling to free amino groups following the procedure described by the manufacturer. Antibodies were then captured on the CM5 biosensor chip to achieve approximately 200 response units (RU). Binding measurements were performed using the running HBS-EP+ buffer. A 2-fold dilution series of His-tagged FGFR1 proteins were injected at a flow rate of 30 μl/min at 25° C. Association rates (kₒₙ, per mol/s) and dissociation rates (koff, per s) were calculated using a simple 1:1 Langmuir binding model (Biacore 4000 Evaluation Software). The equilibrium dissociation constant (KD, mol) was calculated as the ratio of koff/kₒₙ.
(§4) The affinities to human FGFR1b-IIIb for the affinity matured clones reformatted as IgG and monovalent SEEDbodies were measured by BIAcore (using a protocol similar to the one described in Example 1.8) and compared to those of mAb #08 (Table 5).

[3] = biological target: T2, human FGFR1b-IIIb extracellular domain …; assay: ELISA, EC50 from OD450 curves, monovalent SEEDbody format
Protocol: as §1, §2

FGFR1 on NCI-H520 cells = FGFR1 on NCI-H520 cells (human, UniProt P11362 22-822); assay: cell-based or functional assay
[4] = biological target: T1, human FGFR1b-IIIc extracellular domain …; assay: ELISA, EC50 from OD450 curves, IgG1 format
Protocol: as §1
The antibody #A08 both as an IgG1 (bivalent) and as a SEEDbody (monovalent), was affinity matured using the yeast display technology described in (Rhiel et al. 2014) and performing light chain shuffling from immunized OmniRats and naïve human library followed by CDR-H3 parsimonious mutagenesis. Following several sorting rounds, yeast clones were picked, unique clones were reformatted as described in Examples 1.6 and 3.1. The binding affinities of the anti-FGFR1 molecules against human FGFR1b-IIIb) and human FGFR1b-IIIc) were measured by ELISA using a similar protocol as described in Example 1.9. The OD450 was plotted against the antibody concentration and GraphPad Prism software was used to calculate EC₅₀ values (see FIG. 10). […]

[5] = biological target: T2, human FGFR1b-IIIb extracellular domain …; assay: SPR (BIAcore), IgG1 format; target IIIb by paragraph 74 and paragraph 125, the table's title says IIIc
Protocol: as §3, §4

FGFR1 on NCI-H520 cells, sequence (P11362 22-822): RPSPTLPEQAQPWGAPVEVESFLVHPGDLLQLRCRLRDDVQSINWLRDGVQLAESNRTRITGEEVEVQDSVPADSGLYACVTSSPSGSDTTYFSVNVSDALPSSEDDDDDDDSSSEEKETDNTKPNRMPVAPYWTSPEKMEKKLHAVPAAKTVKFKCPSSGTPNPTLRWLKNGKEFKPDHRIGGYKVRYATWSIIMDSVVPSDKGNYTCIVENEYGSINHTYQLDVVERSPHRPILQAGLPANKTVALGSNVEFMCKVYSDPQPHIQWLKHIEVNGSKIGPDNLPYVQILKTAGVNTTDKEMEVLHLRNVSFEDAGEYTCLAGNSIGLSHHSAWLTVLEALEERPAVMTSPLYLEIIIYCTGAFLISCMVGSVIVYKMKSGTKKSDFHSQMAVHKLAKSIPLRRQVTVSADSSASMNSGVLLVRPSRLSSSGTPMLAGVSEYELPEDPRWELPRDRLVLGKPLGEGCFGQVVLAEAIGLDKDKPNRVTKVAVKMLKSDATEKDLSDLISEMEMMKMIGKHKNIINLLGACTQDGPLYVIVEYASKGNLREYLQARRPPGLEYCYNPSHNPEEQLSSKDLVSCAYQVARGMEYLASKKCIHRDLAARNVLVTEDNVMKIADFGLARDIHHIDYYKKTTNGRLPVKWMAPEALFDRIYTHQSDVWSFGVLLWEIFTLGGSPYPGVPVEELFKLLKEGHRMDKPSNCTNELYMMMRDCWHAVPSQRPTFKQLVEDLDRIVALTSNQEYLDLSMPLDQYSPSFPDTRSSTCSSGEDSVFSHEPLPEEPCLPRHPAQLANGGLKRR

- binding result [1]: binds
- Kd [2]: 0.04 nM
B4: #C01 SEEDbody (monovalent) (antibody)
heavy: QVQLQESGPGLVKPSGTLSLTCAVSGGSISSNNWWSWVRQPPGKGLEWIGEIYHSGSTSYNPSLKSRVTISVDKSKNQFSLKLSSVTAADTAVYYCARATDWFDAWGQGTLVTVSSASTKGPSVFPLAPSSKSTSGGTAALGCLVKDYFPEPVTVSWNSGALTSGVHTFPAVLQSSGLYSLSSVVTVPSSSLGTQTYICNVNHKPSNTKVDKRVEPKSCDKTHTCPPCPAPELLGGPSVFLFPPKPKDTLMISRTPEVTCVVVDVSHEDPEVKFNWYVDGVEVHNAKTKPREEQYNSTYRVVSVLTVLHQDWLNGKEYKCKVSNKALPAPIEKTISKAKGQPFRPEVHLLPPSREEMTKNQVSLTCLARGFYPKDIAVEWESNGQPENNYKTTPSRQEPSQGTTTFAVTSKLTVDKSRWQQGNVFSCSVMHEALHNHYTQKTISLSPG
chain: EPKSSDKTHTCPPCPAPELLGGPSVFLFPPKPKDTLMISRTPEVTCVVVDVSHEDPEVKFNWYVDGVEVHNAKTKPREEQYNSTYRVVSVLTVLHQDWLNGKEYKCKVSNKALPAPIEKTISKAKGQPREPQVYTLPPPSEELALNELVTLTCLVKGFYPSDIAVEWLQGSQELPREKYLTWAPVLDSDGSFFLYSILRVAAEDWKKGDTFSCSVMHEALHNHYTQKSLDRSPG
light: SYVLTQPPSVSVAPGQTARITCGGNNIGSESVHWYQQKPGQAPVLVVYDDSDRPSGIPERFSGSNSGNTATLTISRVEAGDEADYYCQVWDSTSDHRVFGGGTKLTVLGQPKAAPSVTLFPPSSEELQANKATLVCLISDFYPGAVTVAWKADSSPVKAGVETTTPSKQSNNKYAASSYLSLTPEQWKSHKSYSCQVTHEGSTVEKTVAPTECS
notes: also called #C01-SEED(AG)

- binding result [1]: binds
- Kd [2]: 0.02 nM
B7: #B10 SEEDbody (monovalent) (antibody)
heavy: B4 heavy with F103Y, A105P
chain: B4 chain
light: B4 light
notes: also called #B10-SEED(AG)

- Kd [5]: 0.02 nM
B11: #B10 IgG1 (antibody, V domains shown)
VH: QVQLQESGPGLVKPSGTLSLTCAVSGGSISSNNWWSWVRQPPGKGLEWIGEIYHSGSTSYNPSLKSRVTISVDKSKNQFSLKLSSVTAADTAVYYCARATDWYDPWGQGTLVTVSS
VL: SYVLTQPPSVSVAPGQTARITCGGNNIGSESVHWYQQKPGQAPVLVVYDDSDRPSGIPERFSGSNSGNTATLTISRVEAGDEADYYCQVWDSTSDHRVFGGGTKLTVLG
notes: heavy constant region not tied

- binding result [4]: binds
- Kd [5]: 0.03 nM
B13: mAb #C01 IgG1 (antibody, V domains shown)
VH: B11 VH with Y103F, P105A
VL: SYVLTQPPSVSVAPGQTARITCGGNNIGSESVHWYQQKPGQAPVLVVYDDSDRPSGIPERFSGSNSGNTATLTISRVEAGDEADYYCQVWDSTSDHRVFGGGTKLTVL
notes: constant regions not tied

- IC50, pFGFR1 inhibition in NCI-H520 cells, FGF1, SEEDbody (FGFR1 on NCI-H520 cells): > 1e-06 M
- IC50, pFGFR1 inhibition in NCI-H520 cells, FGF2, SEEDbody (FGFR1 on NCI-H520 cells): 4e-07 M
- IC50, pFGFR1 inhibition in NCI-H520 cells, non-stimulated, SEEDbody (FGFR1 on NCI-H520 cells): > 1e-06 M
B14: A05 SEEDbody (monovalent) (antibody, V domains shown)
VH: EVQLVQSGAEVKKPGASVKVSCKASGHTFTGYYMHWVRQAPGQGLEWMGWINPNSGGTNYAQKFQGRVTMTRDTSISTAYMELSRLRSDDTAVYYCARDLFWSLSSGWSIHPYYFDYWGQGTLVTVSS
VL: QSALTQPASVSGSPGQSITISCTGTSSDVGSYNLVSWYQQHPGKAPKLMIYGGSKRPSGVPDRFSGSKSGNTASLTISGLQAEDEADYYCSSYTYSGDVFGTGTKVTVL

The remaining lines, values behind:

B1: #A02 SEEDbody (monovalent) (antibody)
heavy: B4 heavy with A105L
chain: B4 chain
light: B4 light
notes: also called #A02-SEED(AG)
- binding result [1]: binds
- Kd [2]: 0.06 nM

B2: SEEDbody #A07 (monovalent) (antibody)
heavy: B4 heavy with A99G, F103Y, A105P
chain: B4 chain
light: B4 light
notes: also called #A07-SEED(AG)
- binding result [1]: binds
- Kd [2]: 0.04 nM

B3: #D02 SEEDbody (monovalent) (antibody)
heavy: B4 heavy with A99G, F103I, A105T
chain: B4 chain
light: B4 light
notes: also called #D02-SEED(AG)
- binding result [3]: binds
- binding result [1]: binds

B5: #G04 SEEDbody (monovalent) (antibody)
heavy: B4 heavy with A99G, F103Y, A105L
chain: B4 chain
light: B4 light
notes: also called #G04-SEED(AG)
- binding result [3]: binds
- binding result [1]: binds

B6: monovalent SEEDbody #A08 (antibody)
heavy: B4 heavy with Q1E, A99G, A105P
chain: B4 chain
light: B4 light
notes: One-armed SEEDbody: full SEED(AG) heavy chain, partial hinge-CH2-CH3 SEED(GA) chain, lambda light chain; produced in CHO-LF cells (afucosylated); also called anti-FGFR1 SEEDbody; #A08 SEEDbody
- IC50, pFGFR1 inhibition in NCI-H520 cells, FGF1, SEEDbody (FGFR1 on NCI-H520 cells): 7e-08 M
- IC50, pFGFR1 inhibition in NCI-H520 cells, FGF2, SEEDbody (FGFR1 on NCI-H520 cells): 6e-09 M
- IC50, pFGFR1 inhibition in NCI-H520 cells, non-stimulated, SEEDbody (FGFR1 on NCI-H520 cells): 2e-08 M
- Kd [2]: 0.08 nM

B8: #D01 SEEDbody (monovalent) (antibody)
heavy: B4 heavy with A105H
chain: B4 chain
light: B4 light
notes: also called #D01-SEED(AG)
- binding result [1]: binds
- Kd [2]: 0.05 nM

B9: mAb #A02 IgG1 (antibody, V domains shown)
VH: B11 VH with Y103F, P105L
VL: B13 VL
notes: constant regions not tied
- binding result [4]: binds
- Kd [5]: 0.05 nM

B10: #A07 IgG1 (antibody, V domains shown)
VH: B11 VH with A99G
VL: B11 VL
notes: as for B11
- Kd [5]: 0.06 nM

B12: mAb #D01 IgG1 (antibody, V domains shown)
VH: B11 VH with Y103F, P105H
VL: B11 VL
notes: as for B11
- Kd [5]: 0.03 nM
